Consider two substances from IntAct's records for PubMed 15294869.

The test deals with pir_arath PIR (UniProt Q5S2C3).
Chain of pir_arath PIR (Q5S2C3 whole entry): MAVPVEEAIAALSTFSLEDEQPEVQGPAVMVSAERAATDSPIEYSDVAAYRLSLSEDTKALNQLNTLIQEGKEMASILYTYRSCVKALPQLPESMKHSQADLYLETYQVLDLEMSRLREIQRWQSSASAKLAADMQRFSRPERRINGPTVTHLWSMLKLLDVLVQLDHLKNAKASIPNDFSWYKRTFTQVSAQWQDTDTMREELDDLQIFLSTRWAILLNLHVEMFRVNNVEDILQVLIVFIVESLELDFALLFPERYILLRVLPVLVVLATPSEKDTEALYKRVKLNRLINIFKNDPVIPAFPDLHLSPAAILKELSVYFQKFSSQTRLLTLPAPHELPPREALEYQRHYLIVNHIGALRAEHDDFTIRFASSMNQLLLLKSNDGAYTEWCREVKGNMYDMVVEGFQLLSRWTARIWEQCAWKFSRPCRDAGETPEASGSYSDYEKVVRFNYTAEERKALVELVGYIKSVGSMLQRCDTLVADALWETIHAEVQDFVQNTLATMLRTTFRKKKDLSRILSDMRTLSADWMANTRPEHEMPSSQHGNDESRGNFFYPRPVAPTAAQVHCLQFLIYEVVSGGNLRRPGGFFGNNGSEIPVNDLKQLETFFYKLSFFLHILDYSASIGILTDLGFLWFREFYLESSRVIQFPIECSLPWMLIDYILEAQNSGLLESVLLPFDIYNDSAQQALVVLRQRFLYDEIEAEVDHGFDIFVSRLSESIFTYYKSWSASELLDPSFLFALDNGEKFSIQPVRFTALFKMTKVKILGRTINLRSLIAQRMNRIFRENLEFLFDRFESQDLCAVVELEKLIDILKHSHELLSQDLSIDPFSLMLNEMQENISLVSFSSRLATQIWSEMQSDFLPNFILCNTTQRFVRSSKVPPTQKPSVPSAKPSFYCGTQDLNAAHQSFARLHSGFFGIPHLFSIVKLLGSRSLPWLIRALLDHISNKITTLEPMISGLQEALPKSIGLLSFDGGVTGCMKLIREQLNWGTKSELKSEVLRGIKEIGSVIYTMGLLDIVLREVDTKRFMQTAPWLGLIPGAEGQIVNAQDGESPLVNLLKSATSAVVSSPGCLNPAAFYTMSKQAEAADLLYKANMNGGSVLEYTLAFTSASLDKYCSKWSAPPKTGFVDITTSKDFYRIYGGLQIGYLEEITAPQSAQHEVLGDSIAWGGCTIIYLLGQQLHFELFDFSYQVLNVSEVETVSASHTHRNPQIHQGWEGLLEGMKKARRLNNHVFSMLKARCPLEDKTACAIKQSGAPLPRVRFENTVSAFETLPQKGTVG

Chain of Rac-like GTP-binding protein ARAC4 (Arabidopsis thaliana (Mouse-ear cress)), Q38919 D120A (Q38919 whole entry D120A): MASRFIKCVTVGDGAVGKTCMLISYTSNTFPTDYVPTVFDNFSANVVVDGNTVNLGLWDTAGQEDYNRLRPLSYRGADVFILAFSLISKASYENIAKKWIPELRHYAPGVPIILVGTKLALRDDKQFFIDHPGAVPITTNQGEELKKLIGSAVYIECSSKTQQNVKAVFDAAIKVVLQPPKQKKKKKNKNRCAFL
Chain of Rac-like GTP-binding protein ARAC4 (Arabidopsis thaliana (Mouse-ear cress)), Q38919 T19N (Q38919 whole entry T19N): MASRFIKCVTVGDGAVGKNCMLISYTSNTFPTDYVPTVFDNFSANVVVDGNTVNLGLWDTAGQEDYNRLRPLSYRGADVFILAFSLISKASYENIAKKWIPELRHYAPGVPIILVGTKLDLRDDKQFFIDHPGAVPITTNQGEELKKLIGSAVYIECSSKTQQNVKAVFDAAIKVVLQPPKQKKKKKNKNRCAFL

Turning to “Rac-like GTP-binding protein ARAC4 (Arabidopsis thaliana (Mouse-ear cress)), Q38919 T19N”, the “effect of a mutation on the interaction” value is “disrupting interaction”. In the case of “Rac-like GTP-binding protein ARAC4 (Arabidopsis thaliana (Mouse-ear cress)), Q38919 D120A”, the “effect of a mutation on the interaction” value is “disrupting interaction”.
